{
  "source": "the domain aggregation screens of Martell et al. (2025)",
  "test": "soluble fraction after stress (log2 fold change); higher = more stays soluble; pooled small domains, quantitative proteomics",
  "conditions": "stress: pH 4",
  "summary_of_the_method": "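Pooled custom libraries of small protein domains were subjected to pH 4 and measured by high-throughput quantitative proteomics. The log2 fold change in soluble amount per domain is reported, higher values meaning more remained soluble. This is used as a measure of aggregation propensity.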",
  "data": [
    {"sequence": "HMSQNISSTKLIPENIKIGMSVFVIPLQQKGIVQSLPNRSKEVLVQIGNAKINVKINNLKLIED", "values": [
      {"measurement": "soluble fraction (log2)", "result": -0.238}
    ]},
    {"sequence": "HMENTFNENLRRIRKEKKITQEQLAEFVGVSPQAVSKWEMNSFPDASLLPKIAEKLEVSIDELFGLK", "values": [
      {"measurement": "soluble fraction (log2)", "result": -0.225}
    ]},
    {"sequence": "HMDKMIFFKNKENNDDNQLVKIGALLIHAAKIDEDFSQEEENIIKQTLINFGAGNKNINEIIEKAKKME", "values": [
      {"measurement": "soluble fraction (log2)", "result": 0.33}
    ]},
    {"sequence": "HMGRQTITLPDFSGQDLEQVKARLTEWGLVPEEKSVFSDSVPLGSVVRTVPAEGDEVSVGDTVTVYKSLGR", "values": [
      {"measurement": "soluble fraction (log2)", "result": 0.252}
    ]},
    {"sequence": "HMGATYSQFLDQVDGGNVQKVTFSGDMRSGTNQISYTTRSGQSATITAPMDRDLINILRAKNVEIVQEEP", "values": [
      {"measurement": "soluble fraction (log2)", "result": 0.22}
    ]},
    {"sequence": "HMNSLFPLSLKYLREQANITQAELAQKLDVTQQAVGRWERGQTSPDYETLKRLSVLFNVSVDYLLGV", "values": [
      {"measurement": "soluble fraction (log2)", "result": -0.359}
    ]},
    {"sequence": "HMASIEPLKTSIRIIWYINGEKDSETLLNTPPTAANKANAQKIADMVEQQIQMGIFNRDAVFPSSPKRQ", "values": [
      {"measurement": "soluble fraction (log2)", "result": -0.559}
    ]},
    {"sequence": "HMQNEIQQLAIDLIARAHKSGASDIHIVDTGTYTRIKFRVLGLLREDSQMEAETGRQMISTIYGILG", "values": [
      {"measurement": "soluble fraction (log2)", "result": -0.19}
    ]},
    {"sequence": "HMVTARMPDLFGLDEATAQRMVSNAGLTLKTEYAYSDQAEGYVFDQTPEANAEVRRGGTVTAMIS", "values": [
      {"measurement": "soluble fraction (log2)", "result": -0.375}
    ]},
    {"sequence": "HMTEPKRIVDHWQPSDDVYDILRMSHIDLDFARSLLPEFIVYWKDSSQTHTSWNSKFLQHAKYHWAKRHQL", "values": [
      {"measurement": "soluble fraction (log2)", "result": -1.21}
    ]},
    {"sequence": "HMRINIVKSKNAEQLYIIHSYRINGKNTSKIYKKLGTMADLLPLHNHDRDQVLAWAKEQARLATEQYDQEN", "values": [
      {"measurement": "soluble fraction (log2)", "result": 0.26}
    ]},
    {"sequence": "HMVDERMVTYINSLDKGNTPFLNELEKEALANYVPIIRREMQSFLKVLLQIKAPLRILEVGTAVGFSTILM", "values": [
      {"measurement": "soluble fraction (log2)", "result": -0.354}
    ]},
    {"sequence": "HMGADRLVGMTAIVTATIDPNDTDRKGRVQVEGEVWSALSDGRLIITEGSKVRITEMHGTRVRVEAI", "values": [
      {"measurement": "soluble fraction (log2)", "result": -0.884}
    ]},
    {"sequence": "HMEAPPHEALSNREFQVLQLLSQGRSVTQIAHQLTLSANTISTYRARIFDKLGLHNPADLYAYAARHGLM", "values": [
      {"measurement": "soluble fraction (log2)", "result": -0.0709}
    ]},
    {"sequence": "HMGAEWTEMRVWTSTSGSKVTAEASSLTNGQVTLETKSGKRITLSIRKLVEADQKFLEAHFSK", "values": [
      {"measurement": "soluble fraction (log2)", "result": 0.101}
    ]},
    {"sequence": "HMSSGNLESLLNKLHNEDYFVRLDAVKALGALGDPGAIDYLIEMLSENGIMRGWVANSLAALGEAQWKKII", "values": [
      {"measurement": "soluble fraction (log2)", "result": -1.44}
    ]},
    {"sequence": "HMGTGQTNEKLAVLTNIQKTQEQILLTLGAKNPLVNLKQYRETLAKILSLSGYKNSNEFFLDPM", "values": [
      {"measurement": "soluble fraction (log2)", "result": -0.25}
    ]},
    {"sequence": "HMYHKKEKAQAANIEERIMILLSDGKHHHITEIKAIYVDEVITLNILEEMLAEEKVIIEGDMIMLVE", "values": [
      {"measurement": "soluble fraction (log2)", "result": -1.47}
    ]},
    {"sequence": "HMKYPVYLQLADLIERKINKNEYPLGSKIPSERELIDAFGISRMTVRKAIEVLIEKGLLTRQHGKGTYVSQ", "values": [
      {"measurement": "soluble fraction (log2)", "result": 0.182}
    ]},
    {"sequence": "HMANTSAVIKQPGLVKLFAQHFVRNGFNAMKAAEAAGFVRPSPTFVRNLADSKPVKDAISELLGPYNDA", "values": [
      {"measurement": "soluble fraction (log2)", "result": 0.22}
    ]},
    {"sequence": "HMLGVKKFGGEAVIAGNIILRQRGTKWITGSNVGIGKDHTLFAKIEGYVVFERMRGRDGQQQISIYP", "values": [
      {"measurement": "soluble fraction (log2)", "result": -0.192}
    ]},
    {"sequence": "HMKTKHISIAEGMSLYTRDRSPFYWGYLNIEGVIHKKSLKTDVVDEAIKLLSIWKNELLNSITK", "values": [
      {"measurement": "soluble fraction (log2)", "result": -0.414}
    ]},
    {"sequence": "HMTKYEGLSLDLIIDGVVITHNLKLAKLDMNWLLDRLKENGWDNPKDIFYAYIDTAGNFRFQPKLKASRTR", "values": [
      {"measurement": "soluble fraction (log2)", "result": -0.906}
    ]},
    {"sequence": "HMGEDPYQMLGLTRQASDEEVRLAWRKLMRENHPDSLASRGVPQEFVKRATEQVAQINAAWDRIKRERG", "values": [
      {"measurement": "soluble fraction (log2)", "result": -0.0212}
    ]},
    {"sequence": "HMANKLSEQIYGSILKDIVNGVYAPREFISEAQIAAKYGVSKAPVKEAMHILASEGFLLSYPKRGYMVN", "values": [
      {"measurement": "soluble fraction (log2)", "result": 0.109}
    ]},
    {"sequence": "HMKEIIFRGIGEFILDYKSLVIEFLNKNNYANLSMDAPVDEVNKAVANNMLNEDFVTELLLFQRRVE", "values": [
      {"measurement": "soluble fraction (log2)", "result": -2.16}
    ]},
    {"sequence": "HMIMTGSIQEKNGKYYTVLNIKDKNGKYKKKWQTTGLPVKGNKRKAEQILRRRIAEYEANQL", "values": [
      {"measurement": "soluble fraction (log2)", "result": "≥ 0.43"}
    ]},
    {"sequence": "HMEEQQIQLIQMKMEKDHKYVGKKISELRIKNMLIVLIKRGDEDIIPRAEVKIKEGDILVLSAQSYEG", "values": [
      {"measurement": "soluble fraction (log2)", "result": -0.29}
    ]},
    {"sequence": "HMSTVTGLINYLSSGLIKGVGEATARKLVDHFGLDVLDIIQFNPQRLLEVDGIGEARAEMIASSFSEQK", "values": [
      {"measurement": "soluble fraction (log2)", "result": -1.48}
    ]},
    {"sequence": "HMIADDLKSLEGVDQDMLRDLAEAGINTRDDLAELAIDELIEITGVSTEEAEKVIMAARAHWFEEES", "values": [
      {"measurement": "soluble fraction (log2)", "result": -1.74}
    ]},
    {"sequence": "HMTLDVALSKEIKYMLKEEHYLPGDKLPSERKLAELFHVQRLTVRGALNLLLQDKTIISKPRSGYYVAPKR", "values": [
      {"measurement": "soluble fraction (log2)", "result": 0.225}
    ]},
    {"sequence": "HMHPELSDSQRTLIALMASGLKDEAIAVEMGVGARTVRRKVQELYELLGVRTRFQAGVAANQRGW", "values": [
      {"measurement": "soluble fraction (log2)", "result": -0.606}
    ]},
    {"sequence": "HMSIGLEELVGSHGEAITDLRPAGQVSIAARRISAVSEGDFINKGDSVEVLSVEGYRVMVRKLET", "values": [
      {"measurement": "soluble fraction (log2)", "result": -0.4}
    ]},
    {"sequence": "HMPMTLGENIARLRTQKDWSQGDLADALGISRQSISKWETDTSIPELEKLIKLSELFGVTLDQLVRGE", "values": [
      {"measurement": "soluble fraction (log2)", "result": -0.615}
    ]},
    {"sequence": "HMVSPLEKSQSFGSFEISREFARTLGLTSARNWENWAASDSRPINIPYSPNVFYKNKGWIDWSDWLGTE", "values": [
      {"measurement": "soluble fraction (log2)", "result": -0.124}
    ]},
    {"sequence": "HMEREQNILQGREVVERELRRLGLAEAYTVSDIAKALKFDDEEQFLAKVGFGDIQSRQISGAIALMEKN", "values": [
      {"measurement": "soluble fraction (log2)", "result": -0.553}
    ]},
    {"sequence": "HMGNWENVEKETTEAIMAVKNGEAVWVDLAPANRMIRQMQHELVEQYGLLSQSYGKEPKRRIRIFQNP", "values": [
      {"measurement": "soluble fraction (log2)", "result": 0.0117}
    ]}
  ]
}
